Test results from patent US4771127A (priority 1985, dated 1988).

Assays:
mice = conditions: mouse, in vivo, ip
specific IgG antibody = tested on: specific IgG antibody; set-up: species or system rabbits; conditions: rabbit, in vivo
[1] = rabbit, in vivo, iv

Tetanus Toxoid
Toxicity (class) (mice): Nontoxic (key: Nontoxic: a minimum of 50 ug of antigen administered intraperitoneally resulted in no mortality)
Immunogenicity (specific IgG antibody): Immunogenic
Pyrogenicity (highest dose with rise in body temperature ≤ +0.3° C.) [1]: 50 ug/ml/kg body weight
